Experiments:
Test in all cases: SIMPL ELISA, bait-IN/prey-CIC
[1] = target: T1, ORC4 (prey, CIC format) (human) (UniProt O43929)
T1 sequence (looked up): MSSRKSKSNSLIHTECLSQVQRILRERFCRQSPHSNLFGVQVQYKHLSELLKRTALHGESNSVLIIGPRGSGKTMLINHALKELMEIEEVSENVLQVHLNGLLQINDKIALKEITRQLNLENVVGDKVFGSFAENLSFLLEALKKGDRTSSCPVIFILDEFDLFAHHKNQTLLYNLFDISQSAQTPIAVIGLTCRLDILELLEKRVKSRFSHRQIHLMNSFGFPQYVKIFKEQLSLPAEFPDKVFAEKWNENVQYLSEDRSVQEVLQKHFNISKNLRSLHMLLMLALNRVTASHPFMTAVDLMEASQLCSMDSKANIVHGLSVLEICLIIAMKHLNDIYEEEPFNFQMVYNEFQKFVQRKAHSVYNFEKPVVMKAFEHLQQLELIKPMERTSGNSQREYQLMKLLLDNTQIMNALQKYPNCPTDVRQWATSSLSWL

[2] = target: CXCR2 (prey, CIC format) (human) (UniProt P25025)
Sequence of CXCR2 (prey, CIC format) (human) (P25025 whole entry): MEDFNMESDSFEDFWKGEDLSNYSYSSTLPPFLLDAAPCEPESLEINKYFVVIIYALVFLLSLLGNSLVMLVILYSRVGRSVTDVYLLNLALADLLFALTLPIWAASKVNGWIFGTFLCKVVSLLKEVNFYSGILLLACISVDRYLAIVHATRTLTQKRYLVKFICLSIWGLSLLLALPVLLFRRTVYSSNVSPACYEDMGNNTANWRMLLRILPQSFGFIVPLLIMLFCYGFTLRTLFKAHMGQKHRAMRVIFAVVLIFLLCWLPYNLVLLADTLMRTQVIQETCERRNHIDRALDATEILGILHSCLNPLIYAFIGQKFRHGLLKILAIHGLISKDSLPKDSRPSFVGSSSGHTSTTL

[3] = target: SMAD4 (prey, CIC format) (human) (UniProt Q13485)
Sequence of SMAD4 (prey, CIC format) (human) (Q13485 whole entry): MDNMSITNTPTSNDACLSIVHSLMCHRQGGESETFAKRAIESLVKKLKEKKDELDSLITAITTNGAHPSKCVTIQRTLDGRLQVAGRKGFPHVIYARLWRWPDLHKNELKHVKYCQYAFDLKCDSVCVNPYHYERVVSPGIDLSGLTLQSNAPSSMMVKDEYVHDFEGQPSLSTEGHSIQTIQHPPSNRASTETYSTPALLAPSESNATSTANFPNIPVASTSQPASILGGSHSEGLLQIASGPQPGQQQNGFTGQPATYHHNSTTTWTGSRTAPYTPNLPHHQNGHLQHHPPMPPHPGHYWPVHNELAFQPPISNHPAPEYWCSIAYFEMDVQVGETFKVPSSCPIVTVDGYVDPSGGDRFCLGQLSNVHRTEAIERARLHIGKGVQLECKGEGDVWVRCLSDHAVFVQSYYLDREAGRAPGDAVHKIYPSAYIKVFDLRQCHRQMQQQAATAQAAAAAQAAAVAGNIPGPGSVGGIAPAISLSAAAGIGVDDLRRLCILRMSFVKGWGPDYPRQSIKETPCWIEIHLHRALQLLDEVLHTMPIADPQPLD

[4] = target: T2, MAP2K5 (prey, CIC format) (human) (UniProt Q13163)
T2 sequence (looked up): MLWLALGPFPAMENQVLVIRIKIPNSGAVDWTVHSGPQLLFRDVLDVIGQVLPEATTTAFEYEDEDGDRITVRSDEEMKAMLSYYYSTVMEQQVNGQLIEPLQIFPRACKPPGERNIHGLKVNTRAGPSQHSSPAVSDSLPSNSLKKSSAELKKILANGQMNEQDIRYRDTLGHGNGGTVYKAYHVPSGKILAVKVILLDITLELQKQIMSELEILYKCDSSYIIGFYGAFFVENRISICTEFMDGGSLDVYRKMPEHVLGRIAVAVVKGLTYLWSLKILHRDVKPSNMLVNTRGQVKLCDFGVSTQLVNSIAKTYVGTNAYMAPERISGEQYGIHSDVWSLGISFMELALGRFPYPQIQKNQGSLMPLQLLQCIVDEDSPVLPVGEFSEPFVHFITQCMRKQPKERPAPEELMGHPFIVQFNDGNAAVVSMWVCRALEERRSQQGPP

[5] = target: T3, MAD1L1 (prey, CIC format) (human) (UniProt Q9Y6D9)
T3 sequence (looked up): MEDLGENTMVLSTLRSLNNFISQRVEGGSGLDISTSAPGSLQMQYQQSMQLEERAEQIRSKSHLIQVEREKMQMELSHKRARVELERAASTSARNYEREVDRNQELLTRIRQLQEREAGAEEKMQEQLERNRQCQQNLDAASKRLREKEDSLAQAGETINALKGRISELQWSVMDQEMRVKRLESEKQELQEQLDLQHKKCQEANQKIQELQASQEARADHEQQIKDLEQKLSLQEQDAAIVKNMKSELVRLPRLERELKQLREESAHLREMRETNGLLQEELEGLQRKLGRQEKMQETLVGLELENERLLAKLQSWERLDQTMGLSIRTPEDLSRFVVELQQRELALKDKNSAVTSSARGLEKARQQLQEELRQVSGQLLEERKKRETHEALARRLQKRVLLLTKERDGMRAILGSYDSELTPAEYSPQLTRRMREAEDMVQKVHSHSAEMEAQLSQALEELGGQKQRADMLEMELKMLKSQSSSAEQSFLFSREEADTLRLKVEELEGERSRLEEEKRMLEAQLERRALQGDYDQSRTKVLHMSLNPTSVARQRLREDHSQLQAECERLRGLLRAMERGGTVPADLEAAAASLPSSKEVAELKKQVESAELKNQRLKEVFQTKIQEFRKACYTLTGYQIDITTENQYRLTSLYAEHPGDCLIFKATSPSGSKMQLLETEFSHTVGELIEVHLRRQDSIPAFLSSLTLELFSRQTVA

[6] = target: NFE2L1 (prey, CIC format) (human) (UniProt Q14494)
Sequence of NFE2L1 (prey, CIC format) (human) (Q14494 whole entry): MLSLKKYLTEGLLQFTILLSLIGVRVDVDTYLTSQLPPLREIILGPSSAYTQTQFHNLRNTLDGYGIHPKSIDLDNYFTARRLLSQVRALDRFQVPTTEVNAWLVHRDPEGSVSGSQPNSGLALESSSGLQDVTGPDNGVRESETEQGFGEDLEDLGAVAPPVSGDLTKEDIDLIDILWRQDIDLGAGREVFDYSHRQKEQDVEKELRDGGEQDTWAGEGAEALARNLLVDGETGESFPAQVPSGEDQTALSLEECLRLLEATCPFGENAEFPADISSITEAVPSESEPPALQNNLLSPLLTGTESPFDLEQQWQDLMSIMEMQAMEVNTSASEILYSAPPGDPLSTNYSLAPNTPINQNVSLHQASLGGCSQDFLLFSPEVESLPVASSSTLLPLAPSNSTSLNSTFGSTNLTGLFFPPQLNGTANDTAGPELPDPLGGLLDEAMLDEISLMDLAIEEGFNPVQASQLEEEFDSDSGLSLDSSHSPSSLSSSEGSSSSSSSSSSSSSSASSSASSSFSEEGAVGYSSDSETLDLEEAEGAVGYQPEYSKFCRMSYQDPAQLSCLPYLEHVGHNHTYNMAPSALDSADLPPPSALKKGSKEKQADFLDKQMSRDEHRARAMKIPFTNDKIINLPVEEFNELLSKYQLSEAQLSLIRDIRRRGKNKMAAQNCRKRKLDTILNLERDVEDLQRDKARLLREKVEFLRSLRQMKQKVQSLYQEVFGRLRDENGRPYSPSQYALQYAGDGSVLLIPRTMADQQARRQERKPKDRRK

[7] = target: T4, NTF4 (prey, CIC format) (human) (UniProt P34130)
T4 sequence (looked up): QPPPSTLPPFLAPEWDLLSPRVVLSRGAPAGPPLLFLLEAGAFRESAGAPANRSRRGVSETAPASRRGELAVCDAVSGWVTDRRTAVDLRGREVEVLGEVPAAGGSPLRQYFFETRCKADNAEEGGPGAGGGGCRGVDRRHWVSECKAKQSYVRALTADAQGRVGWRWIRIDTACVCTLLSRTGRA

[8] = target: RAN (prey, CIC format) (human) (UniProt P62826)
[9] = target: T5, CASP7 (prey, CIC format) (human) (UniProt P55210)
T5 sequence (looked up): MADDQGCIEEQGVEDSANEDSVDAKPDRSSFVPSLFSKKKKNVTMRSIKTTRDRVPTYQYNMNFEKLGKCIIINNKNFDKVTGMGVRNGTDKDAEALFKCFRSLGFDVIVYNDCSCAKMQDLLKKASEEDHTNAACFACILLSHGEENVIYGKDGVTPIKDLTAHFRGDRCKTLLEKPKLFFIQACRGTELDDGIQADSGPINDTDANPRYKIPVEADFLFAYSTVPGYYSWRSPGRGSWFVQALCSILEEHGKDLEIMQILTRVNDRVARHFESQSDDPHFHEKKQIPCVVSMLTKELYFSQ

[10] = target: SKP2 (prey, CIC format) (human) (UniProt Q13309)
Sequence of SKP2 (prey, CIC format) (human) (Q13309 whole entry): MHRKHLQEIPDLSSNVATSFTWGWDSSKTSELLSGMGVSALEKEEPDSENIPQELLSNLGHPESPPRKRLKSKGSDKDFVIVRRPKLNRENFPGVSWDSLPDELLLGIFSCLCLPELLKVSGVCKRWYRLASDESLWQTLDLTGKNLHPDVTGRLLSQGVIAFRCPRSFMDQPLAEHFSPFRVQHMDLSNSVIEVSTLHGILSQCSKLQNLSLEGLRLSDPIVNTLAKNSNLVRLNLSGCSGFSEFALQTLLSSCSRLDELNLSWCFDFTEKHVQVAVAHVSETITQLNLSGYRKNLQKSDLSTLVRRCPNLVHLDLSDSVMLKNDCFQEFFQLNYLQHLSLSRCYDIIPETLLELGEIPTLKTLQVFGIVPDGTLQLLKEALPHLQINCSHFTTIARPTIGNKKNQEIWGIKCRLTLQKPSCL

[11] = target: BTRC (prey, CIC format) (human) (UniProt Q9Y297)
Sequence of BTRC (prey, CIC format) (human) (Q9Y297 whole entry): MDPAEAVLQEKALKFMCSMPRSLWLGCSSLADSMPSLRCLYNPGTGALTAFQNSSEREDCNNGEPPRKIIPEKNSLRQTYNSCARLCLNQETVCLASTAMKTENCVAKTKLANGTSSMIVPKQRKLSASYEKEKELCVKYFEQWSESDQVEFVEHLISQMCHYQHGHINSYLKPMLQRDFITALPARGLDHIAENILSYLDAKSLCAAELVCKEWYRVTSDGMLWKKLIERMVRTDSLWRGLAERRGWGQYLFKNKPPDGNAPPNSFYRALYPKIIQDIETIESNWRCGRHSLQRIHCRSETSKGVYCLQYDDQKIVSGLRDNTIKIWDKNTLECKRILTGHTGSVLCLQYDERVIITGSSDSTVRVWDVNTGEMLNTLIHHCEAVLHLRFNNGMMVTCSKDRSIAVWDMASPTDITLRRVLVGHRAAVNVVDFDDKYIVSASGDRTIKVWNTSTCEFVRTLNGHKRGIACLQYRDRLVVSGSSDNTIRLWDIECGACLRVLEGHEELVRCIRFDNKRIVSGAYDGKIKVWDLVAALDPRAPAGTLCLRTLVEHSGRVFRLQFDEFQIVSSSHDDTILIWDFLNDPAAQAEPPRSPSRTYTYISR

Sequence of RCC1 (bait, IN format) (P18754 whole entry): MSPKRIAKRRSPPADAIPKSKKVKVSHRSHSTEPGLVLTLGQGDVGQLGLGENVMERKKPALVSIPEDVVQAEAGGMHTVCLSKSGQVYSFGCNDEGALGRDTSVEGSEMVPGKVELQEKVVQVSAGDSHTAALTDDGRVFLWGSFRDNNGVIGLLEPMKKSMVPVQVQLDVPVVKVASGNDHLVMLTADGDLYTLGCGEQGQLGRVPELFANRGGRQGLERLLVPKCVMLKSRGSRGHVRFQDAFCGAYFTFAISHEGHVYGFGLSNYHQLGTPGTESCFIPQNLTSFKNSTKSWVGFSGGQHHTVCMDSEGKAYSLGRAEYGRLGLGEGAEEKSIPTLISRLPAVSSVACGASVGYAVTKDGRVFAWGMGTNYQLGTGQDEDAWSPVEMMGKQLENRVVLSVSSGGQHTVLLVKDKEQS

Question: What does the source list for “CXCL1 (bait, IN format) (from UniProt P09341 35-107) (ligand)”?
Answer: PLU mean [1]: 0.103; PLU mean [2]: 0.178; PLU mean [3]: 0.101; PLU mean [4]: 0.27

Question: With “MAD2L1 (bait, IN format) (from UniProt Q13257 1-205)” as the substance, how does the PLU mean [5] read?
Answer: 2.52

Question: What about the PLU mean [6] of the same substance?
Answer: 0.0819

Question: What about the PLU mean [7] of the same substance?
Answer: 0.133

Question: For “RCC1 (bait, IN format) (from UniProt P18754 1-421)”, which PLU mean [8] is on record?
Answer: 0.748

Question: And the PLU mean [9]?
Answer: 0.125

Question: Which results are given for “SKP1A (bait, IN format) (from UniProt P63208 1-163)”?
Answer: PLU mean [2]: 0.107; PLU mean [10]: 0.376; PLU mean [11]: 1.26

Reference: patent US20220229068A1, “DETECTION OF PROTEIN TO PROTEIN INTERACTIONS” (THE GOVERNING COUNCIL OF THE UNIVERSITY OF TORONTO, priority 2019, published 2022)
